Data reported in PMC9058472.

Target: polymerized microtubules (UniProt P68369)

- microtubule binding against WT α-TAT1: 65%
Substance: GFP-α-TAT1^DC1 (α-TAT1 with Cluster 1 deleted) (from UniProt Q8K341 1-314) (domain or fragment)
